Values quoted from earlier work as cited in publication PMC2669593.

Molecular target: CaVβ1b (UniProt Q02641)
Sequence of UniProt Q02641 (Q02641 whole entry): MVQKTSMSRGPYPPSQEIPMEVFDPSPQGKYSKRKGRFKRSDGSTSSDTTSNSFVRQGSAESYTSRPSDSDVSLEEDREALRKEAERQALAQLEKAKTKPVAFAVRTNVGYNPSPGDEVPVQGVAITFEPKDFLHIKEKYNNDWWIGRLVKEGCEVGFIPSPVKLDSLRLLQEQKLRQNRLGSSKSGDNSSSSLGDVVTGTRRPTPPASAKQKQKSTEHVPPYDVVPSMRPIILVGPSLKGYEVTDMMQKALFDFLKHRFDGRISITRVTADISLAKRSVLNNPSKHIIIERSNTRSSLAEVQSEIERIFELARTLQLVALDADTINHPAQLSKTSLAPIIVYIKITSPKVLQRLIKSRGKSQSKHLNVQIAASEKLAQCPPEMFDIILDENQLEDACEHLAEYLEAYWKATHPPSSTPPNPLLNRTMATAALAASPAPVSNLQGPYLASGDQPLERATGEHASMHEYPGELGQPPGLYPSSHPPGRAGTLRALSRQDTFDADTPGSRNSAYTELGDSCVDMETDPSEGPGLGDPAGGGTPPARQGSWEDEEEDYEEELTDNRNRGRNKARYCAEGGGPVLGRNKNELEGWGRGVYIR

Kd: 0.01 µM
Substance: CaV2.2 I-II linker (from UniProt Q00975)
